Experimental data as given in article PMC6522533 (2019).

Assays:
Assay in all cases: GST pull-down, anti-Smad7 immunoblot
[1] = biological target: T1, GST-β-catenin aa120–683 (Mus musculus (Mouse), UniProt Q02248)
T1 chain: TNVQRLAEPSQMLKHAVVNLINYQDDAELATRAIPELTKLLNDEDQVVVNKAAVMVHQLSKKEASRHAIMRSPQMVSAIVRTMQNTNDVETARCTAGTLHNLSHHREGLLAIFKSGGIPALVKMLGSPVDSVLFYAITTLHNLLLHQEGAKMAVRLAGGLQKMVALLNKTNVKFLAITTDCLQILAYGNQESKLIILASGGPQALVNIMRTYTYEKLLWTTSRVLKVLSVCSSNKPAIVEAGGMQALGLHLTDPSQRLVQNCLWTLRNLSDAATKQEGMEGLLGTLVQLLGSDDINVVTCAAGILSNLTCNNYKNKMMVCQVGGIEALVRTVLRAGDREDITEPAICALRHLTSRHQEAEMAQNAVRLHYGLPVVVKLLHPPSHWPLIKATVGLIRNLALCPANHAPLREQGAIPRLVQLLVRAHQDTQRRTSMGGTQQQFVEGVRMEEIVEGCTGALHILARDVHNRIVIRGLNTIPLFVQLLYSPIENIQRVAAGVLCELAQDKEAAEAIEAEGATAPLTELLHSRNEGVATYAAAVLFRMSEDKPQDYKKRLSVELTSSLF

[2] = biological target: T2, GST-β-catenin aa575–683 (Mus musculus (Mouse), UniProt Q02248)
T2 chain: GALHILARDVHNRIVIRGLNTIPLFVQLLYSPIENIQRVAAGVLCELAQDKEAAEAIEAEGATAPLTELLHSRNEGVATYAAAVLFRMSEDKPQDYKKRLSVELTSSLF

[3] = biological target: T3, GST-β-catenin aa1–574 (Mus musculus (Mouse), UniProt Q02248)
T3 chain: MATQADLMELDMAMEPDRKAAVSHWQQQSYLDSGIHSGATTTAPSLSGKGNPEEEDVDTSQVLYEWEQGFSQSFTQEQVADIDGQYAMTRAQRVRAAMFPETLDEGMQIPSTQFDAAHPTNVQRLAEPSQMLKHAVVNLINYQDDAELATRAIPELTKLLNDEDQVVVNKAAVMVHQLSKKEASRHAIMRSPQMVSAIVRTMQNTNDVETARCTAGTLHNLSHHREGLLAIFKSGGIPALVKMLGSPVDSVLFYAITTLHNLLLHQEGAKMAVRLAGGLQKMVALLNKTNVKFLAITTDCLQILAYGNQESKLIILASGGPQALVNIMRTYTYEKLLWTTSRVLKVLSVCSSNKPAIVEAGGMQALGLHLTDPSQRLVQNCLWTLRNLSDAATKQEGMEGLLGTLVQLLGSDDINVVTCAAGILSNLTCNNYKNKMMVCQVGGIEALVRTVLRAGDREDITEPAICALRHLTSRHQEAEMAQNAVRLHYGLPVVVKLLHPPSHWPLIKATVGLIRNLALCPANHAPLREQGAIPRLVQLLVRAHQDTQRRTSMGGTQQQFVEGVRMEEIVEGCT

[4] = biological target: T4, GST-β-catenin aa1–106 (Mus musculus (Mouse), UniProt Q02248)
T4 chain: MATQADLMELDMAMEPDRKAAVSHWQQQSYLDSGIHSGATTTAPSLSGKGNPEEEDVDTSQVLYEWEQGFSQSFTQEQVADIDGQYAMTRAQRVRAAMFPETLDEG

[5] = biological target: T5, GST-β-catenin aa575–696 (Mus musculus (Mouse), UniProt Q02248)
T5 chain: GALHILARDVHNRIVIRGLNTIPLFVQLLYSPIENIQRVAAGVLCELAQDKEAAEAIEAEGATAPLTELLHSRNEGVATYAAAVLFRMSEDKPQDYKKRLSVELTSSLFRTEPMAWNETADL

[6] = biological target: T6, GST-β-catenin aa422–683 (Mus musculus (Mouse), UniProt Q02248)
T6 chain: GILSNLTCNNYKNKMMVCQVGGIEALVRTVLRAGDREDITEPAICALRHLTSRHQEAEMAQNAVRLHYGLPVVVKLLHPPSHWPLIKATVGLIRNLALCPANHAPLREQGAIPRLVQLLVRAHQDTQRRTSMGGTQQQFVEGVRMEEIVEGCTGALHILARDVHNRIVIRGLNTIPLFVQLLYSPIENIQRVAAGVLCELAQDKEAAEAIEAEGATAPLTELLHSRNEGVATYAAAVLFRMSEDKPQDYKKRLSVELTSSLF

Measured: binding result

B1: Smad7 (GST tag removed by thrombin) (protein)
chain: MFRTKRSALVRRLWRSRAPGGEDEEEGVGGGGGGGELRGEGATDGRAYGAGGGGAGRAGCCLGKAVRGAKGHHHPHPPTSGAGAAGGAEADLKALTHSVLKKLKERQLELLLQAVESRGGTRTACLLLPGRLDCRLGPGAPASAQPAQPPSSYSLPLLLCKVFRWPDLRHSSEVKRLCCCESYGKINPELVCCNPHHLSRLCELESPPPPYSRYPMDFLKPTAGCPDAVPSSAETGGTNYLAPGGLSDSQLLLEPGDRSHWCVVAYWEEKTRVGRLYCVQEPSLDIFYDLPQGNGFCLGQLNSDNKSQLVQKVRSKIGCGIQLTREVDGVWVYNRSSYPIFIKSATLDNPDSRTLLVHKVFPGFSIKAFDYEKAYSLQRPNDHEFMQQPWTGFTVQISFVKGWGQCYTRQFISSCPCWLEVIFNSR
no binding: [3] | [4]
binds: all other assays above
